Target: T1, human CCX CKR with N-terminal Flag epitope, stably expressed on HEK293 cells, Q9NPB9
T1 chain: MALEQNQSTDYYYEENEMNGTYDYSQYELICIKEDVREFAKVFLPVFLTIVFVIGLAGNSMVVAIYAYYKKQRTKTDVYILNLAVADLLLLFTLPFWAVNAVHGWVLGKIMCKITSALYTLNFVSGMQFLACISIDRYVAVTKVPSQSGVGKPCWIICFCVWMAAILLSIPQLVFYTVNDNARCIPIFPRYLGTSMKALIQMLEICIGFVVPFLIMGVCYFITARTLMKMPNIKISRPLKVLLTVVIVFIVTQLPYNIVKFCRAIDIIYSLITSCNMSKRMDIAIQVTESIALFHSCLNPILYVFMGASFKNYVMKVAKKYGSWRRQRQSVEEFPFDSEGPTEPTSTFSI
Assay: 125I-ELC competition binding
Settings: ligand; chains chain; remark: other sources report otherwise

B1: BLC (B-lymphocyte chemoattractant), O43927 23-109 (protein)
chain: VLEVYYTSLRCRCVQESSVFIPRRFIDRIQILPRGNGCPRKEIIVWKKNKSIVCVDPQAEWIQRMMEVLRKRSSSTLPVPVFKRKIP
B1 gave an IC50 of 140 nM.
